This test deals with T1, CCR2 (Homo sapiens, UniProt P41597).
T1 construct: endogenous in cells; host or cells: THP-1
T1 sequence (P41597 1-360 isoform P41597-2): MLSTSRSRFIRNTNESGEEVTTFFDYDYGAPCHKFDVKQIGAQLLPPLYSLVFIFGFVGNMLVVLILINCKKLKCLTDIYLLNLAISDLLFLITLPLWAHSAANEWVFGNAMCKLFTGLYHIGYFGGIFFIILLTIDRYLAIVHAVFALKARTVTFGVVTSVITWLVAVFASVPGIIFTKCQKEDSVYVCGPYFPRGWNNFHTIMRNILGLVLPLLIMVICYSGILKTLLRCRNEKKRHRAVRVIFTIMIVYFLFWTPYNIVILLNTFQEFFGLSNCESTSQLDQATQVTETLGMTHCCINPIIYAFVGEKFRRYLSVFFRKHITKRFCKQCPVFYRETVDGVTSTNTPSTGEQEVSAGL
As to the kind of experiment: CCR2 inhibitory potency assay, calcium flux method, THP-1 cells stimulated with 100 nM CCL2. As to conditions: for fold less potent than 1P2-CCL2: compiled data from four experiments. The class given is cell-based. The method, then: CCR2 inhibitory potency assay was determined using the calcium flux method.
Ca^2+ flux measurements were performed using an FDSS micro-cell device ([…]). On the day of the experiment, THP-1 cells were seeded 20000 cells/well) to wells of black-walled clear-bottom 384-well plates.
THP-1 cells were loaded with a calcium-sensitive fluorescent dye (Screen Quest™ Fluo-8 No Wash Calcium Assay Kit, AAT Bioquest) according to the manufacturer's instructions, then a first addition of either test sample dilutions or vehicle alone were added. 5 minutes later, cells were stimulated with 100 nM CCL2.

[1] abbreviates: Table 3, CCR2 inhibition, read-out: mean IC50.
The mark [2] stands for this setting: Table 4, CCR2 inhibition, read-out: mean IC50.
Setting [3] is: FIG. 5, calcium flux, THP-1 cells, read-out: IC50 (compiled data from four experiments, mean pIC50) (converted).

The source of these data is patent US20260146071A1, “CCR2 INHIBITORS AND METHODS OF USE” (ORION BIOTECHNOLOGY USA Corp., priority 2022, published 2026).

Read-outs that look alike come from different tables or passages of the source. Where no end group is shown, it is not given here. [ ]: non-standard residue; d: D form. Nle = CCCC[C@H](N)C(=O)O

In general, IC50 refers to the midpoint of a concentration-inhibition curve. With “CCL2 variant, N-terminal WRPHWSAPVT (SEQ ID NO: 25), human CCL2 Met64Nle core [CCL2-M64Nle-1P3]”, the IC50 under setting [1] was 32.8 nM.

In the case of “CCL2 variant, N-terminal APQWAAAT, positions 1-2 absent (SEQ ID NO: 32), human CCL2 Met64Nle core [CCL2-M64Nle-2P1]”, under setting [1], the IC50 amounted to 89.3 nM.

As for “CCL2 variant, N-terminal WVLSSLNAPVT (SEQ ID NO: 17), human CCL2 Met64Nle core [CCL2-M64Nle-1P5]”, under setting [1], the IC50 was determined as 14.2 nM.

In the case of “CCL2 variant, N-terminal FP(Nle)DGWRPRQ (SEQ ID NO: 108), human CCL2 11-76 Met64Nle core (FP[Nle]DGWRPRQ; also: fused to human CCL2 11-76 core with Met64Nle) [4P5-CCL2]”, the IC50 under setting [2] is 65.8 nM.

As to “CCL2 variant, N-terminal (Nle)PDWNRAPVT (SEQ ID NO: 35), human CCL2 Met64Nle core [CCL2-M64Nle-NGS-MEO-1]”, the IC50 under setting [1] was determined as 167 nM.

Take “CCL2 variant, N-terminal FTNPTWDQFT (SEQ ID NO: 86), human CCL2 11-76 Met64Nle core [3P11-CCL2]”: the IC50 under setting [2] is 0.703 nM.

Regarding “CCL2 variant, N-terminal MYGLGWNAPVT (SEQ ID NO: 23), human CCL2 Met64Nle core [CCL2-M64Nle-1P19]”, the IC50 under setting [1] amounted to 32.4 nM.

Turning to “CCL2 variant, N-terminal FP(Nle)DGWRPLV (SEQ ID NO: 140), human CCL2 11-76 Met64Nle core (FP[Nle]DGWRPLV; also: fused to human CCL2 11-76 core with Met64Nle) [4P22-CCL2]”, the IC50 under setting [2] came to 0.759 nM.

As for “CCL2 variant, N-terminal SPSYTRAPVT (SEQ ID NO: 31), human CCL2 Met64Nle core [CCL2-M64Nle-2P7]”, the concentration for half-maximal inhibition (IC50) under setting [1] was 50.2 nM.

For the molecule “CCL2 variant, N-terminal FTNPTWKPYA (SEQ ID NO: 91), human CCL2 11-76 Met64Nle core (not fully specified (C-terminus); also: followed C-terminally by human CCL2 11-76 core with Met64Nle) [3P16-CCL2]”, under setting [2], the IC50 came out at 1.23 nM.

For “CCL2 variant, N-terminal TPGYLKAPVT (SEQ ID NO: 19), human CCL2 Met64Nle core [CCL2-M64Nle-NGS-MEO-5]”, under setting [1], the IC50 is 18.4 nM.

“CCL2 variant, N-terminal FP(Nle)DGWRPRT (SEQ ID NO: 142), human CCL2 11-76 Met64Nle core (FP[Nle]DGWRPRT; also: fused to human CCL2 11-76 core with Met64Nle) [4P23-CCL2]”: under setting [2], the IC50 was determined as 1.02 nM.

With “CCL2 variant, N-terminal FP(Nle)DGWRGQV (SEQ ID NO: 128), human CCL2 11-76 Met64Nle core (FP[Nle]DGWRGQV; also: fused to human CCL2 11-76 core with Met64Nle) [4P16-CCL2]”, the IC50 under setting [2] amounted to 0.82 nM.

“CCL2 variant, N-terminal FTNPTWDAVT (SEQ ID NO: 89), human CCL2 11-76 Met64Nle core [3P14-CCL2]”: under setting [2], the concentration for half-maximal inhibition (IC50) turned out to be 0.594 nM.

For the molecule “CCL2 variant, N-terminal FP(Nle)DGWQGGV (SEQ ID NO: 122), human CCL2 11-76 Met64Nle core (FP[Nle]DGWQGGV; also: followed by human CCL2 11-76 core with Met64Nle) [4P13-CCL2]”, the IC50 under setting [2] was 0.534 nM.

Take “CCL2 variant, N-terminal FTNPTWATHV (SEQ ID NO: 82), human CCL2 11-76 Met64Nle core [3P7-CCL2]”: the concentration for half-maximal inhibition (IC50) under setting [2] was 1.47 nM.

For `Cc1cnc(C(=O)c2ncnc3[nH]ccc23)c(NS(=O)(=O)c2ccc(Cl)c(C(F)(F)F)c2)c1` [CCX-140, reference compound], the “fold less potent than 1P2-CCL2” value is recorded as 14.12 fold. The IC50 under setting [3] is 24 nM.

As for “CCL2 variant, N-terminal FTNPTWDTGT (SEQ ID NO: 96), human CCL2 11-76 Met64Nle core (not fully specified (C-terminus); also: followed C-terminally by human CCL2 11-76 core with Met64Nle) [3P21-CCL2]”, under setting [2], the IC50 turned out to be 1.28 nM.

For the molecule “CCL2 variant, N-terminal FTNPTWDAQV (SEQ ID NO: 77), human CCL2 11-76 Met64Nle core [3P2-CCL2]”, the IC50 under setting [2] came to 0.883 nM.

For “CCL2 variant, N-terminal FP(Nle)DGWHPLV (SEQ ID NO: 132), human CCL2 11-76 Met64Nle core (FP[Nle]DGWHPLV; also: followed by human CCL2 11-76 core with Met64Nle) [4P18-CCL2]”, the IC50 under setting [2] came out at 0.585 nM.

For the molecule “CCL2 variant, N-terminal FP(Nle)DGWAPVT (SEQ ID NO: 10), human CCL2 Met64Nle core [CCL2-M64Nle-2P6]”, the IC50 under setting [1] amounted to 2.2 nM.

For “CCL2 variant, N-terminal FP(Nle)DGWVSRT (SEQ ID NO: 124), human CCL2 11-76 Met64Nle core (FP[Nle]DGWVSRT; also: fused to human CCL2 11-76 core with Met64Nle) [4P14-CCL2]”, under setting [2], the IC50 is 0.965 nM.

Regarding “CCL2 variant, N-terminal FTNPTWQEYS (SEQ ID NO: 92), human CCL2 11-76 Met64Nle core (not fully specified (C-terminus); also: followed C-terminally by human CCL2 11-76 core with Met64Nle) [3P17-CCL2]”, the IC50 under setting [2] turned out to be 1 nM.

Take “CCL2 variant, N-terminal FP(Nle)DGWGPGV (SEQ ID NO: 144), human CCL2 11-76 Met64Nle core (FP[Nle]DGWGPGV; also: followed by human CCL2 11-76 core with Met64Nle) [4P24-CCL2]”: under setting [2], the IC50 amounted to 1.65 nM.

Regarding “CCL2 variant, N-terminal FP(Nle)DGWRGGV (SEQ ID NO: 116), human CCL2 11-76 Met64Nle core (FP[Nle]DGWRGGV; also: followed by human CCL2 11-76 core with Met64Nle) [4P9-CCL2]”, the IC50 under setting [2] worked out at 1.65 nM.

In the case of “CCL2 variant, N-terminal FP(Nle)DGWRGLT (SEQ ID NO: 106), human CCL2 11-76 Met64Nle core (FP[Nle]DGWRGLT; also: followed by human CCL2 11-76 core with Met64Nle) [4P4-CCL2]”, the IC50 under setting [2] worked out at 2.38 nM.

Regarding “CCL2-M64Nle-NGS-MESR-1 (SYSWVR; also: part of CCL2 M64Nle construct, placement of chain in protein not given here)”, the IC50 under setting [1] turned out to be 155 nM.

As to “CCL2 variant, N-terminal IYGVGWNAPVT (SEQ ID NO: 14), human CCL2 Met64Nle core [CCL2-M64Nle-1P14]”, the IC50 under setting [1] stood at 9.99 nM.

With “CCL2 variant, N-terminal FTNPTWDHFV (SEQ ID NO: 88), human CCL2 11-76 Met64Nle core [3P13-CCL2]”, under setting [2], the IC50 came to 0.437 nM.

Regarding “CCL2 variant, N-terminal ISWFTFNAPVT (SEQ ID NO: 22), human CCL2 Met64Nle core [CCL2-M64Nle-1P13]”, the IC50 under setting [1] turned out to be 31.2 nM.

“CCL2-M64Nle-NGS-MESR-5 (AWGGIR; also: part of CCL2 M64Nle construct, placement of chain in protein not given here)”: the IC50 under setting [1] was found to be 41.5 nM.

In the case of “CCL2 variant, N-terminal FP(Nle)DGWGSRV (SEQ ID NO: 102), human CCL2 11-76 Met64Nle core (FP[Nle]DGWGSRV; also: followed by human CCL2 11-76 core with Met64Nle) [4P2-CCL2]”, the IC50 under setting [2] worked out at 2.72 nM.

Regarding “CCL2 variant, N-terminal FTNPTWDAGV (SEQ ID NO: 97), human CCL2 11-76 Met64Nle core [3P22-CCL2]”, the IC50 under setting [2] was 1 nM.

“CCL2 variant, N-terminal FTNPTWDSFS (SEQ ID NO: 84), human CCL2 11-76 Met64Nle core (not fully specified (C-terminus); also: followed C-terminally by human CCL2 11-76 core with Met64Nle) [3P9-CCL2]”: the IC50 under setting [2] worked out at 0.585 nM.

Regarding “CCL2 variant, N-terminal FTNPTWDAFT (SEQ ID NO: 76), human CCL2 11-76 Met64Nle core [3P1-CCL2]”, under setting [2], the 50% inhibitory concentration (IC50) was 0.655 nM.

As to `CC(C)(C)N1CCN[C@@H](C(=O)N2CCN(C(=O)Nc3ccc(Cl)c(F)c3)CC2)C1` [AZD2423, reference compound], the “fold less potent than 1P2-CCL2” value was found to be 3.53 fold. The IC50 under setting [3] is 6 nM.

For “CCL2 variant, N-terminal WYTVGWNAPVT (SEQ ID NO: 21), human CCL2 Met64Nle core [CCL2-M64Nle-1P16]”, the IC50 under setting [1] is 26.7 nM.

Regarding “CCL2 variant, N-terminal FTNPTWRPST (SEQ ID NO: 80), human CCL2 11-76 Met64Nle core (not fully specified (C-terminus); also: followed C-terminally by human CCL2 11-76 core with Met64Nle) [3P5-CCL2]”, the IC50 under setting [2] worked out at 2.86 nM.
